Measured values published in patent US20240254220A1 (CENTRICSBIO, published 2024).

Experiments:
[1] = target: T1, CD300c on the surface of cells (human, UniProt Q08708 21-224); test: flow cytometry (FACS binding) on THP-1 cells overexpressing CD300c, FITC anti-human IgG (H+L), MFI
T1 construct: whole, on cells; also called cellular antigen
T1 sequence (looked up): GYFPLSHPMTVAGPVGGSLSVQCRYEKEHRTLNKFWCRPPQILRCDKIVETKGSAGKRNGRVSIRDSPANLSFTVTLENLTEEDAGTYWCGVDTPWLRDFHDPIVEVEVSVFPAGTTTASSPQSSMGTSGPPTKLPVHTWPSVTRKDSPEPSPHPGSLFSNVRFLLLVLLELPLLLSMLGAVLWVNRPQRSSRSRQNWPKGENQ
Protocol: In order to identify whether the anti-CD300c monoclonal antibody (CL7) recognizes a cellular antigen, FACS binding was performed.
Then, the cells were incubated with the anti-CD300c monoclonal antibody, which was serially diluted 3-fold starting from 10 μg/mL, in a CO₂ incubator for 30 minutes, and washed twice with FACS buffer. Then, the cells were incubated with FITC-conjugated anti-human IgG (H+L), which was diluted 1:100 in FACS buffer, in a CO₂ incubator for 30 minutes, and washed twice with FACS buffer. Subsequently, FITC signals were measured with a CytoFLEX instrument manufactured by Beckman Coulter, Inc., and then the MFI values were obtained using CytExpert program.

[2] = target: PD-L1 [B7-H1] (Sino Biological) (UniProt Q9NZQ7 19-239); test: binding ELISA on coated antigen (8 µg/mL), HRP anti-Fc detection, 450 nm (Experimental Example 2.5)
PD-L1 [B7-H1] (Sino Biological), sequence (Q9NZQ7 19-239 limits assumed): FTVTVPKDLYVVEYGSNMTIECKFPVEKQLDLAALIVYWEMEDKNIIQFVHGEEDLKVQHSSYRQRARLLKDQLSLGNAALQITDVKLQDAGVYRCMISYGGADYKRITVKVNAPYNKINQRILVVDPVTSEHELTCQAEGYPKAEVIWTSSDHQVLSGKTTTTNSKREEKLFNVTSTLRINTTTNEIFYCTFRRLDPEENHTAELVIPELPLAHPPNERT
Protocol: (§1) In order to identify that the anti-CD300c monoclonal antibody CL7 specifically binds only to CD300c without binding to other B7 family proteins, binding ELISA was performed. More specifically, each of CD300c antigen, CD300a antigen, or seven B7 family protein antigens (PD-L1 [B7-H1] (Sino Biological), ICOS Ligand[B7-H2] (Sino Biological), CD276[B7-H3] (Sino Biological), B7-H4 (Sino Biological), CD80[B7-1] (Sino Biological), CD86[B7-2] (Sino Biological), CD273[PD-L2] (Sino Biological)) in a coating buffer (0.1 M sodium carbonate, pH 9.0) was coated on an ELISA plate at a concentration of 8 μg/mL per well, and then bound to the plate by incubation at 2° C. to 8° C. overnight. The unbound antigen was removed by washing with PBST three times, and then […] of blocking buffer (5% skim milk in PBST) was added to each well. Subsequently, blocking was performed at room temperature for 1 hour, followed by washing again with PBST. Thereafter, CL7 was diluted in quadruplicate with PBS, incubated with the antigen at room temperature for 1 hour for antigen binding 1 hour later, and washed three times with PBST. Then, a secondary antibody (HRP-conjugated anti-Fc IgG) diluted to 4 μg/mL in blocking buffer was added thereto, followed by incubation at room temperature for 1 hour. Subsequently, the unbound antibody for detection was removed using PBST, and then a TMB solution was added thereto, followed by incubation for 10 minutes for development. Then, 2 N sulfuric acid solution was added to terminate the development reaction, and the absorbance was measured at 450 nm to identify the antibody specifically binding to the CD300c antigen.

[3] = target: T2, ICOS Ligand[B7-H2] (Sino Biological) (UniProt O75144 19-258, limits assumed); test: as above
T2 sequence (looked up): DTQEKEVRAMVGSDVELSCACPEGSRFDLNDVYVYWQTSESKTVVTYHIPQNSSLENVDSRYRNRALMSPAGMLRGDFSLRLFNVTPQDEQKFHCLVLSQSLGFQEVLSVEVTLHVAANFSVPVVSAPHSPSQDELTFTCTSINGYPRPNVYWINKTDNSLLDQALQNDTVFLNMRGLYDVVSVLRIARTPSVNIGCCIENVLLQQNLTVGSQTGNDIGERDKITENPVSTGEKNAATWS
Protocol: as §1

[4] = target: T3, CD273[PD-L2] (Sino Biological) (UniProt Q9BQ51 20-219, limits assumed); test: as above
T3 sequence (looked up): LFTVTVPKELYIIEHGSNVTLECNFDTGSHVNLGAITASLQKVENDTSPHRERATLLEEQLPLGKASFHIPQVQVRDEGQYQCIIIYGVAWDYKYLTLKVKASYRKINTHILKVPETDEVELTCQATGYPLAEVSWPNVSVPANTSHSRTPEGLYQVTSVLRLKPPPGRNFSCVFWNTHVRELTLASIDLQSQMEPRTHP
Protocol: as §1

[5] = target: T4, CD300c antigen (11832-H08H, Sino Biological) (human, UniProt Q08708 21-183); test: SPR, CD300c immobilised on the chip (399.2 RU), CL7 as analyte at 0-6.25 µg/mL; CD300c on the chip, CL7 as analyte
T4 construct: Bought antigen; also called CD300c protein; CD300 antigen-like family member C
T4 sequence (looked up): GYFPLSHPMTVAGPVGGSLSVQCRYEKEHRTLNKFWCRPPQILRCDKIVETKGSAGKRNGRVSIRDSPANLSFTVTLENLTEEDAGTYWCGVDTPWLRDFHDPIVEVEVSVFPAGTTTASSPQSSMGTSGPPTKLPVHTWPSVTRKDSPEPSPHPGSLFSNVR
Protocol: In order to identify the binding affinity between the antigen CD300c and the anti-CD300c monoclonal antibody CL7, a surface plasmon resonance experiment was performed.
To immobilize CD300c on a […], 5 μg/mL of CD300c was diluted in 10 mM acetate buffer (pH 5.5). Then, the flow rates were all set equally to […], and the target RU was respectively set to 300 RU. […] by a mixture of 0.2 M EDC and 0.05 M NHS, and blocked with 1 M ethanolamine to perform the immobilization so that the final RU of CD300c became 399.2 RU. Then, CL7 was diluted in PBSP to concentrations of 0, 0.195, 0.39, 0.78, 1.56, 3.125, and 6.25 μg/mL, separately. […] Subsequently, 50 mM NaOH was allowed to flow at a rate of 30 μL/min for 30 seconds to regenerate the surface.

EC50 [1]: 2.6 nM
Kd [5]: 0.52 nM
B1: CL7 (antibody, V domains shown)
VH: EVQLLESGGGLVQPGGSLRLSCAASGFTFSRYAMSWVRQAPGKGLEWVSAISGSGGSTYYADSVKGRFTISRDNSKNTLYLQMNSLRAEDTAVYYCARSSQGIFDIWGQGTLVTVSS
VL: QSVLTQPPSASGTPGQRVTISCSGNNIGTRRVHWYQQLPDTAPKLLIYSKNNRPSGVPDRFSGSKSGTSASLAISGLRSEDEADYYCAAWDDSLSGPVFGGGTKLTVL
notes: detected with anti-human IgG (H+L) and anti-Fc IgG; also called anti-CD300c monoclonal antibody CL7; anti-CD300c monoclonal antibody (CL7)
binding result [2]: no binding (tested: log10 about 0.4 ug/ml (about 2.5 ug/ml))
binding result [3]: no binding (tested: log10 about 0.4 ug/ml (about 2.5 ug/ml))
binding result [4]: no binding (tested: log10 about 0.4 ug/ml (about 2.5 ug/ml))
